In the Immune Epitope Database (IEDB):

Tests used:
Assay in all cases: IEDB peptide-MHC binding, purified MHC/competitive/radioactivity; filed as Kd, often an IC50 or EC50 that approximates it; ≥ and ≤ were set here for values at or beyond the usual limits of such assays
[1] = biological target: HLA-A*68:01
[2] = biological target: HLA-A*31:01
[3] = biological target: HLA-A*03:01
[4] = biological target: HLA-A*11:01
[5] = biological target: HLA-A*33:01
[6] = source organism: Vaccinia virus WR
[7] = source organism: Mammarenavirus mopeiaense
[8] = source organism: Dengue virus 4 Philippines/H241/1956
[9] = source organism: SARS coronavirus Tor2
[10] = source organism: Dengue virus 2 Jamaica/1409/1983
[11] = source organism: Dengue virus 4 Dominica/814669/1981
[12] = source organism: Dengue virus 3 Martinique/1243/1999
[13] = source organism: Dengue virus 1 Brazil/97-11/1997
[14] = source organism: Dengue virus 4 Thailand/0348/1991

Sequence | Kd [1, 6] [µM] | Kd [2, 6] [µM] | Kd [3, 6] [µM] | Kd [4, 6] [µM] | Kd [5, 6] [µM] | also measured
KAIEKDRLDK | 4.73 | ≥ 21.8 | 12.6 | 1.2 | ≥ 70 | –
KASMLEKYK | 2.85 | 0.181 | 4.04 | 0.11 | ≥ 39.2 | –
KCFGNTAIAK | – | – | – | – | – | Kd [1, 7]: 7.87 µM; Kd [2, 7]: 0.528 µM; Kd [3, 7]: 0.195 µM; Kd [4, 7]: 7.37 µM; Kd [5, 7]: 3.38 µM
KSKQDRSDGY | ≥ 70.2 | ≥ 70 | ≥ 35.3 | ≥ 69.8 | ≥ 70 | –
KSMFWDGMDY | 0.511 | 0.0772 | 0.00579 | 0.00175 | ≥ 66.2 | –
KSRRLNLFSK | ≥ 70.2 | 0.647 | 0.64 | 1.09 | ≥ 70 | –
KVASAGISYK | – | – | – | – | – | Kd [3, 8]: 0.00314 µM; Kd [4, 8]: 0.0227 µM
KVKTELVMDK | ≥ 48.6 | 0.12 | 1.33 | 0.409 | ≥ 70 | –
KVVDTFISY | 3.38 | 1.17 | 0.0079 | 0.00498 | 12.3 | –
LALTDVEKR | 0.162 | 0.209 | ≥ 78 | 12.3 | ≥ 73.3 | –
LAMDEFIQR | – | – | – | – | – | Kd [1, 9]: 0.612 µM; Kd [2, 9]: 0.362 µM; Kd [3, 9]: ≥ 78 µM; Kd [4, 9]: 2.39 µM; Kd [5, 9]: 1.45 µM
LTTLSRTSKK | – | – | – | – | – | Kd [4, 10]: 1.86 µM
MIKMFSQIDR | 0.0016 | 0.00243 | 2.25 | 3.79 | 0.0453 | –
MMKLGISPSK | 0.0811 | 0.382 | 0.0115 | 0.0271 | 10.6 | –
MQNCLLRLK | – | – | – | – | – | Kd [1, 9]: 1.37 µM; Kd [2, 9]: 0.0131 µM; Kd [3, 9]: 0.0983 µM; Kd [4, 9]: 0.0177 µM; Kd [5, 9]: 12.1 µM
MTLMKGASRR | – | – | – | – | – | Kd [1, 11]: 0.0397 µM; Kd [2, 11]: 0.0819 µM; Kd [5, 11]: 0.0685 µM
NAISSRVDR | 0.0149 | 1.28 | ≥ 78 | ≥ 37.1 | 0.096 | –
NFLKEQHCQK | – | – | – | – | – | Kd [1, 9]: ≥ 36.4 µM; Kd [2, 9]: 1.47 µM; Kd [3, 9]: 7.28 µM; Kd [4, 9]: 13.3 µM; Kd [5, 9]: 1.22 µM
NLLDSYFVVK | – | – | – | – | – | Kd [1, 9]: 2.35 µM; Kd [2, 9]: 7.22 µM; Kd [3, 9]: 5.37 µM; Kd [4, 9]: 1.87 µM; Kd [5, 9]: 4.59 µM
NLTDTNFKK | 0.027 | 9.07 | 1.22 | 0.658 | 4.43 | –
NMLKRERNR | – | – | – | – | – | Kd [5, 10]: 0.079 µM
NVHEHINDQK | 0.00438 | ≥ 70 | 4.05 | 18.4 | ≥ 29.2 | –
PLIDIIRKR | 0.974 | 6.25 | ≥ 45.7 | ≥ 48.1 | 1.02 | –
PTFAAGLLLR | – | – | – | – | – | Kd [1, 10]: 0.837 µM

Sequence | Kd [1, 6] [µM] | Kd [2, 6] [µM] | Kd [3, 6] [µM] | Kd [4, 6] [µM] | Kd [5, 6] [µM] | also measured
PVNQFTGYLK | – | – | – | – | – | Kd [1, 9]: 2.26 µM; Kd [2, 9]: ≥ 70 µM; Kd [3, 9]: 5.33 µM; Kd [4, 9]: 0.764 µM; Kd [5, 9]: ≥ 61.9 µM
QFIKPVSDLY | 1.27 | ≥ 46.5 | ≥ 70.1 | ≥ 38.3 | ≥ 42.6 | –
QFNFNGHTY | 0.175 | 0.565 | 5.3 | 14.2 | ≥ 64.6 | –
QTVKPGNFNK | – | – | – | – | – | Kd [1, 9]: 0.418 µM; Kd [2, 9]: 1.51 µM; Kd [3, 9]: 2.73 µM; Kd [4, 9]: 0.249 µM; Kd [5, 9]: 10.5 µM
RALKAYFTAK | 1.95 | 0.0388 | 0.0124 | 0.0265 | 16 | –
RFQPFQQFGR | – | – | – | – | – | Kd [1, 9]: 0.54 µM; Kd [2, 9]: 0.00106 µM; Kd [3, 9]: 13.5 µM; Kd [4, 9]: ≥ 35.1 µM; Kd [5, 9]: 1.3 µM
RINGIPQQH | – | – | – | – | – | Kd ([3]; source organism: Homo sapiens): 0.11 µM
RLGLVLDDYK | 0.506 | 2.22 | 0.0489 | 0.0378 | ≥ 70 | –
RLPTFMTQK | – | – | – | – | – | Kd [3, 10]: 0.00236 µM
RMLNILNRR | – | – | – | – | – | Kd [2, 10]: 0.00242 µM
SALTLHWFR | – | – | – | – | – | Kd [1, 8]: 0.00237 µM; Kd [2, 8]: 0.000247 µM; Kd [5, 8]: 0.0037 µM
SIMKSVGTGK | – | – | – | – | – | Kd [3, 12]: 0.0083 µM; Kd [4, 12]: 0.0205 µM
TFAAGLLLR | – | – | – | – | – | Kd [5, 10]: 0.0681 µM
TIEEGRTLR | – | – | – | – | – | Kd [5, 13]: 0.382 µM
TMRCIGISNR | – | – | – | – | – | Kd [2, 10]: 0.00366 µM; Kd [5, 10]: 0.0141 µM
TTNIWLKLR | – | – | – | – | – | Kd [2, 10]: 0.00264 µM; Kd [5, 10]: 0.00725 µM
TVASAAQRR | – | – | – | – | – | Kd [1, 13]: 0.0338 µM
TVMAFHLSTR | – | – | – | – | – | Kd [1, 14]: 0.00443 µM; Kd [2, 14]: 0.00592 µM; Kd [4, 14]: 0.0694 µM; Kd [5, 14]: 0.0213 µM
VLARWGTFKK | – | – | – | – | – | Kd [3, 12]: 0.0183 µM
VTAASAAQRR | – | – | – | – | – | Kd [1, 12]: 0.0424 µM
WSYYMATLK | – | – | – | – | – | Kd [1, 8]: 0.00183 µM; Kd [3, 8]: 0.00333 µM; Kd [4, 8]: 0.0161 µM
YQNKVVKVLR | – | – | – | – | – | Kd [5, 8]: 0.446 µM
YVCKHTYVDR | – | – | – | – | – | Kd [1, 12]: 0.89 µM; Kd [2, 12]: 0.133 µM
YVSAIAQAK | – | – | – | – | – | Kd [1, 13]: 0.0362 µM
